Data from patent US20260232769A1 (WUXI BIOLOGICS IRELAND, published 2026).

T1: IL-2Rα/β/γc complex (high affinity receptor) on human activated CD8+ T cells (human, UniProt P01589 22-272; P14784 27-551; P31785 23-369)
T1 sequence (looked up) 1: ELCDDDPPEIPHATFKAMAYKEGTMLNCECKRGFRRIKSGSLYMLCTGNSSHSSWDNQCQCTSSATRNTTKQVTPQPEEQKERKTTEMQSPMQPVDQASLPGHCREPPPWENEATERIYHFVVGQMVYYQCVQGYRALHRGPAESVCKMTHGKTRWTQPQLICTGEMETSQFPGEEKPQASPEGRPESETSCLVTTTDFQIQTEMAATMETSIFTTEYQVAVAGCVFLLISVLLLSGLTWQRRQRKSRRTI
T1 sequence (looked up) 2: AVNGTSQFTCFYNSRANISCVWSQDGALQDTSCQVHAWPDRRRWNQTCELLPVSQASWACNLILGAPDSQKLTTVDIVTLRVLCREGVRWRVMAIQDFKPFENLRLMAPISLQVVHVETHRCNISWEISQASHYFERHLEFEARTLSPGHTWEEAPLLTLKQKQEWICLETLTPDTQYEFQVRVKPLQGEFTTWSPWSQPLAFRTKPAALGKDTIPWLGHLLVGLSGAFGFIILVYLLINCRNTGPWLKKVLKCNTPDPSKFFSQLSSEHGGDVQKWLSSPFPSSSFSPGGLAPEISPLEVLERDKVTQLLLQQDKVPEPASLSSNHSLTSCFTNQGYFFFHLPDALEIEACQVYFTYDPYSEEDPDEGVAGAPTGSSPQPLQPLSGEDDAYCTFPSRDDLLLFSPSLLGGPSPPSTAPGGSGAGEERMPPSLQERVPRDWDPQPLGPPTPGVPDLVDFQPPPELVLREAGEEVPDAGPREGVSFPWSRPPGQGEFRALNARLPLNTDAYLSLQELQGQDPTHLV
T1 sequence (looked up) 3: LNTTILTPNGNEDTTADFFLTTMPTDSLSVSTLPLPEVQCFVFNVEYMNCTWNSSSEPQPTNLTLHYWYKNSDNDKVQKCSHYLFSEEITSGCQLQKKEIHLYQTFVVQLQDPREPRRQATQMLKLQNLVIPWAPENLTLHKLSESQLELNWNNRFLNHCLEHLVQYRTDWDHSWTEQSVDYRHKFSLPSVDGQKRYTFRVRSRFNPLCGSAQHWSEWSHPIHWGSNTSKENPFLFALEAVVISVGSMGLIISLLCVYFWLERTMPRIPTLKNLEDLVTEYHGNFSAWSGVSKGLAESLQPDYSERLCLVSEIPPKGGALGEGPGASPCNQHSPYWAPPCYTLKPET

T2: IL-2Rβ/γc complex (intermediate affinity receptor) on primary human CD8+ T cells (human, UniProt P14784 27-551; P31785 23-369)
T2 sequence (looked up) 1: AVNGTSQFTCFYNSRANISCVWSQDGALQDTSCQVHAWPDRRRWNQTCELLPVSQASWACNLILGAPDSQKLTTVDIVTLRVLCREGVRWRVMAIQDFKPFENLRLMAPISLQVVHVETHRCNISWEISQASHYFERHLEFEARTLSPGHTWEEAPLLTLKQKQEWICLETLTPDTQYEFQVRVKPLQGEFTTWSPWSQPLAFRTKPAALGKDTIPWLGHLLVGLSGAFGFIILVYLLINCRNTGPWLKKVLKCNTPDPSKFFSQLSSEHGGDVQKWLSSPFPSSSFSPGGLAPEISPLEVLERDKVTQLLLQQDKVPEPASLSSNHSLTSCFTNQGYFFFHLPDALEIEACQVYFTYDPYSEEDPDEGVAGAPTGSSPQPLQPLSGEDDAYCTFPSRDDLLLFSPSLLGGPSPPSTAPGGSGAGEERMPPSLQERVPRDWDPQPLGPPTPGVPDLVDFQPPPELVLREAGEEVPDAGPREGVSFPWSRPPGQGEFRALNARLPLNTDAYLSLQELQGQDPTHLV
T2 sequence (looked up) 2: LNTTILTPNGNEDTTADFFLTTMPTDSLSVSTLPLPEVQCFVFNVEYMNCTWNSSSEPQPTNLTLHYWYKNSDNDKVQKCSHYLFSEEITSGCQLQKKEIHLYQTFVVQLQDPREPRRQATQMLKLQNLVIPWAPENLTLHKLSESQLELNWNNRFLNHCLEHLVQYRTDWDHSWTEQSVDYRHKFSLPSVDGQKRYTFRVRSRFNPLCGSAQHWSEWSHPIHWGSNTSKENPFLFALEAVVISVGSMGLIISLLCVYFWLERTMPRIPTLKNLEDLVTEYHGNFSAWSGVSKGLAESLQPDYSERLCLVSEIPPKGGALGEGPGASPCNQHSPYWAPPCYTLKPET

T3: IL-2Rα (CD25) on human activated CD8+ T cells (human, UniProt P01589 22-272)
T3 sequence (looked up): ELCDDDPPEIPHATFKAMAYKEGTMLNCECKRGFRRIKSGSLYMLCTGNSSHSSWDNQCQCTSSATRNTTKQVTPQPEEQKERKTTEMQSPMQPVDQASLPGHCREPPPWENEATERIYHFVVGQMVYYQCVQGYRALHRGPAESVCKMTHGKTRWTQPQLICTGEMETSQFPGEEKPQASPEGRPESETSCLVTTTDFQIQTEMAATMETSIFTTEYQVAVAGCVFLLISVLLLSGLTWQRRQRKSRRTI


Tests used:
Experiment in all cases: cell-based or functional assay
[1] = biological target: T1, IL-2Rα/β/γc complex (high affinity …)
[2] = biological target: T2, IL-2Rβ/γc complex (intermediate …)
[3] = biological target: T1, IL-2Rα/β/γc complex (high affinity …); remark: listed apart in the source
[4] = biological target: T3, IL-2Rα (CD25) on human activated CD8+ T …
[5] = biological target: PD-1 (on CHO-PD1 engineered cell line; on activated CD8+ T cells) (UniProt Q15116 25-288, limits assumed)

Potency reduction, pSTAT5, human activated CD8+ T [1]	Potency reduction, pSTAT5, human primary CD8+ T [2]	pSTAT5 EC50, human primary CD8+ T [2]	Potency reduction, pSTAT5, human activated CD8+ T (CD25 positive and PD-1 positive) [3]	pSTAT5 EC50, human activated CD8+ T (CD25 positive and PD-1 positive) [3]	PD-1+/PD-1- ratio (pSTAT5 potency, activated versus primary CD8+ T) [4]	PD-1+/PD-1- ratio (pSTAT5 potency, activated versus primary CD8+ T) [5]	Binder
12.4 fold							W3XX115-T3U0.E44-1.uIgG4V322 (Fc fusion) APTSSSTKKTQLQLEHLLLDLQMILNGINNYKNPKLTRMLTVKFAMPKKATELKHLQCLEEELKPLEEVLNGAQSKNFHLRPRDLISNINVIVLELKGSETTFMCEYADETATIVEFLNRWITFCQSIISTLTESKYGPPCPPCPAPEAAGGPSVFLFPPKPKDTLMISRTPEVTCVVVDVSQEDPEVQFNWYVDGVEVHNAKTKPREEQFNSTYRVVSVLTVLHQDWLNGKEYKCKVSNKGLPSSIEKTISKAKGQPREPQVYTLPPCQEEMTKNQVSLWCLVKGFYPSDIAVEWESNGQPENNYKTTPPVLDSDGSFFLYSRLTVDKSRWQEGNVFSCSVMHEALHNHYTQKSLSLSLG heavy: EIQLQQSGPELVKPGASVKVSCKASGYSFTDYNMYWVKQSHGESLEWIGYIDPYNGGTRYNQKFKGKATLTVDKSSSTAFMHLNSLTSEDSAVYYCARNGHWDGAWFAYWGQGTLVTVSAASTKGPSVFPLAPCSRSTSESTAALGCLVKDYFPEPVTVSWNSGALTSGVHTFPAVLQSSGLYSLSSVVTVPSSSLGTKTYTCNVDHKPSNTKVDKRVESKYGPPCPPCPAPEAAGGPSVFLFPPKPKDTLMISRTPEVTCVVVDVSQEDPEVQFNWYVDGVEVHNAKTKPREEQFNSTYRVVSVLTVLHQDWLNGKEYKCKVSNKGLPSSIEKTISKAKGQPREPQVCTLPPSQEEMTKNQVSLSCAVKGFYPSDIAVEWESNGQPENNYKTTPPVLDSDGSFFLVSRLTVDKSRWQEGNVFSCSVMHEALHNHYTQKSLSLSLG light: DIQMNQSPSSLSASLGDTITITCHASQNINVWLSWYQQKPGNIPKLLIYKASNLHTGVPSRFSGSRSGTGFTLTISSLQPEDIATYYCHQGQSYPFTFGSGTKLEIKRTVAAPSVFIFPPSDEQLKSGTASVVCLLNNFYPREAKVQWKVDNALQSGNSQESVTEQDSKDSTYSLSSTLTLSKADYEKHKVYACEVTHQGLSSPVTKSFNRGEC
	13.4 fold	191 nM	2 fold	0.055 nM	3470 fold	3470 fold	W3XX115-T2U3.E44-6.uIgG4V322 (Fc fusion) APTSSSTKKTQLQLEHLLLDLQMILNGINNYKNPKLTRMLTFKFYMPKKATELKHLQCLEEELKPLEEVLNLAQSKNFHLRPRDLISNINVIVLELKGSETTFMCEYADETATIVEFLNRWITFCQSIIESKYGPPCPPCPAPEAAGGPSVFLFPPKPKDTLMISRTPEVTCVVVDVSQEDPEVQFNWYVDGVEVHNAKTKPREEQFNSTYRVVSVLTVLHQDWLNGKEYKCKVSNKGLPSSIEKTISKAKGQPREPQVYTLPPCQEEMTKNQVSLWCLVKGFYPSDIAVEWESNGQPENNYKTTPPVLDSDGSFFLYSRLTVDKSRWQEGNVFSCSVMHEALHNHYTQKSLSLSLGK heavy: QVQLVQSGAEVKKPGSSVKVSCKASGFTFTTYYISWVRQAPGQGLEYLGYINMGSGGTNYNEKFKGRVTITADKSTSTAYMELSSLRSEDTAVYYCAIIGYFDYWGQGTMVTVSSASTKGPSVFPLAPCSRSTSESTAALGCLVKDYFPEPVTVSWNSGALTSGVHTFPAVLQSSGLYSLSSVVTVPSSSLGTKTYTCNVDHKPSNTKVDKRVESKYGPPCPPCPAPEAAGGPSVFLFPPKPKDTLMISRTPEVTCVVVDVSQEDPEVQFNWYVDGVEVHNAKTKPREEQFNSTYRVVSVLTVLHQDWLNGKEYKCKVSNKGLPSSIEKTISKAKGQPREPQVCTLPPSQEEMTKNQVSLSCAVKGFYPSDIAVEWESNGQPENNYKTTPPVLDSDGSFFLVSRLTVDKSRWQEGNVFSCSVMHEALHNHYTQKSLSLSLGK light: DVVMTQSPLSLPVTLGQPASISCRSSQSLLDSDGGTYLYWFQQRPGQSPRRLIYLVSTLGSGVPDRFSGSGSGTDFTLKISRVEAEDVGVYYCMQLTHWPYTFGQGTKLEIKRTVAAPSVFIFPPSDEQLKSGTASVVCLLNNFYPREAKVQWKVDNALQSGNSQESVTEQDSKDSTYSLSSTLTLSKADYEKHKVYACEVTHQGLSSPVTKSFNRGEC
	25.9 fold	370 nM	3.2 fold	0.088 nM	4200 fold	4200 fold	W3XX115-T2U3.E44-26.uIgG4V322 (Fc fusion) APTSSSTKKTQLQLEHLLLDLQMILNGINNYKNPKLTRMLTFKFYMPKKATELKHLQCLEEELKPLEEVLNLAQSKNFHLRPRDLISNINVIVLELKGSETTFMCEYADETATIVEFLNRWITFCQSILESKYGPPCPPCPAPEAAGGPSVFLFPPKPKDTLMISRTPEVTCVVVDVSQEDPEVQFNWYVDGVEVHNAKTKPREEQFNSTYRVVSVLTVLHQDWLNGKEYKCKVSNKGLPSSIEKTISKAKGQPREPQVYTLPPCQEEMTKNQVSLWCLVKGFYPSDIAVEWESNGQPENNYKTTPPVLDSDGSFFLYSRLTVDKSRWQEGNVFSCSVMHEALHNHYTQKSLSLSLGK heavy: QVQLVQSGAEVKKPGSSVKVSCKASGFTFTTYYISWVRQAPGQGLEYLGYINMGSGGTNYNEKFKGRVTITADKSTSTAYMELSSLRSEDTAVYYCAIIGYFDYWGQGTMVTVSSASTKGPSVFPLAPCSRSTSESTAALGCLVKDYFPEPVTVSWNSGALTSGVHTFPAVLQSSGLYSLSSVVTVPSSSLGTKTYTCNVDHKPSNTKVDKRVESKYGPPCPPCPAPEAAGGPSVFLFPPKPKDTLMISRTPEVTCVVVDVSQEDPEVQFNWYVDGVEVHNAKTKPREEQFNSTYRVVSVLTVLHQDWLNGKEYKCKVSNKGLPSSIEKTISKAKGQPREPQVCTLPPSQEEMTKNQVSLSCAVKGFYPSDIAVEWESNGQPENNYKTTPPVLDSDGSFFLVSRLTVDKSRWQEGNVFSCSVMHEALHNHYTQKSLSLSLGK light: DVVMTQSPLSLPVTLGQPASISCRSSQSLLDSDGGTYLYWFQQRPGQSPRRLIYLVSTLGSGVPDRFSGSGSGTDFTLKISRVEAEDVGVYYCMQLTHWPYTFGQGTKLEIKRTVAAPSVFIFPPSDEQLKSGTASVVCLLNNFYPREAKVQWKVDNALQSGNSQESVTEQDSKDSTYSLSSTLTLSKADYEKHKVYACEVTHQGLSSPVTKSFNRGEC
